Measurements from the supplement of paper PMC9170038.

Test system: MS2 coat protein
Test: apparent KD of MS2 coat protein; higher = weaker reporter binding
Details: Eterna round: R107
How it was run: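 Designed RNA switches were made by on-chip transcription from Illumina sequencing clusters and then titrated with SNAP-549-labelled MS2 coat protein. Twofold steps ran from 0.7 or 1.5 nM to 3 µM, each lasting 0.8–1.5 h early and 10–20 min late, in 100 mM Tris-HCl pH 7.5, 80 mM KCl, 4 mM MgCl2, without or with constant ligand. Apparent KD is the per-design median of normalised cluster binding-curve fits.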

[1] = input ligand: theophylline 20 uM
[2] = input ligand: theophylline 2 mM
[3] = input ligand: tryptophan 2.4 mM

Sequence | apparent KD of MS2 coat protein (input ligand: arginine 13.2 mM) [nM] | apparent KD of MS2 coat protein (input ligand: none) [nM] | apparent KD of MS2 coat protein [1] [nM] | apparent KD of MS2 coat protein [2] [nM] | apparent KD of MS2 coat protein [3] [nM]
UGUACCAUGUCGGCCGCCACUUGAAAUAAACAAGAGGAUCACCCUUGUGACGUCAAAGACGUCUCAAGGACCGGGACAUGGUACU [TryBS Zipper #StaticStem #Zipper] | 168 | 313 | 281 | 357 | 19
AGUUAUUCGAACAUGGUUGACGAGUGGCAACGAGGACCGGUACGGCCGCCACUCGAAUAAACAUGAGGAUCACCCAUGUACAAAU [T''-M'-T'-T-MS2 - Design 10] | 72.1 |  | 264 | 442 | 
AUAUGAUCAUGUGAUACCAGAAAUGGUAGUCUUCACUGGAUUACAUGAGGAUCACCCAUGUUCCCUUGGCAGCAUAUGAUCAUAU [#03 Exclusion-TheophyllineB] | 31.7 |  | 68.2 |  | 43.9
AACAUGAGGAUCACCCAUGUUCUCGUGUACCGAGGACCGGUACGGCCGCCACUCGGUUCUCGCGAGGAUGGUCAAAGACUAUCCA [Omei Trp A SS B v5] | 22.6 |  | 25.1 | 24.7 | 
CAUUAAUUACGAAGGAGCGUCGAGAAUGGGUAAACAUGAGGAUCACCCAUGUGAAGGGAACGGCAGGUAGGUCGCGUAAUUAAUG [#22 Same State - Arginine B] | 105 | 97.2 | 116 | 75.1 | 60.5
CCUGAUAACUGAAGGAGCGAGAAACCCUACAUGAGGAUCACCCAUGUAUACACGGGAACUUCUCAGGUAGGUCGCAGUUUGUCAG [Adiso] | 48 | 101 | 165 | 138 | 71.5
AACAUGAGGAUCACCCAUGUAUUGGGUGAUACCAGCCUGAAUAAUGGCCCUUGGCAGCACCACGCUAACUUUAUGUCUGCGAACC [Maus] | 39.3 |  | 263 |  | 83.6
CUAUAGAUAAGAAGGAGCGUCGAAAAUGGGUAAACAUGAGGAUCACCCAUGUAAAGGGAACGACAGGUAGGUCGCUUAUUUAUAG [AstromonsSSArgB#6] | 124 | 217 | 206 | 226 | 145
ACACAUGAGGAUCACCCAUGUCCAAUAGAUACCAGUGAUACGGUGCACCCUUGGCAGCUGUUACUGAGUGAUGGUUCCCUCGGAA [Same State Theophylline A GF3] | 48.1 |  | 81.9 |  | 58.7
ACUAGUUGUGCAGAUACCAGGCACGAGGAUCACCCGUGUUUGGGAUGUUCGCAUCUUCCUGUCCCUUGGCAGCUGUACAUCUAGA [Omei Theo B Exc v9] | 29.6 | 30.9 | 54.3 | 155 | 37.4
AAAAGAGGUGGAAGGAGCGGGAGACAUGAGGAUCACCCAUGUGAUGUUACGAAAGGUUCAGCCCAGGUAGGUCGCCAUGUCGAAA [zczzmullin] | 36.6 | 46.8 | 268 | 175 | 34.7
CGGGUUCGGGCGGCCGCCACUUUGAUUGGGUGUGACAUGAGGAUCACCCAUGUUGUGGGUGAUCGGAGGACCGGGUUUGGGCUUG [Fidorka] | 85.2 | 65.6 | 471 | 744 | 240
UGACAUUGCUCAGAUACCAGACAUGAGCAUCAGCCAUGUGCCAACAAGUACAUAAUAAAUGUCCCUUGGCAGCUGAGCAAUGUCU [TheoBX 16 #MS2Left #Theo2 #AlternativeMS2] | 14.3 | 13 | 20.5 | 149 | 12.7
AGAAUACAUGUUUUAAUACGGAAAACUGAUACCAGUGUAUCUAUUCACCCUUGGCAGCAGAGACAUGAGGAUCACCCAUGUAUUA [JR_Nu_SSTheophyA_Sub019] | 28.1 |  | 41.2 |  | 46.6
UGUAACAUGAGGAUCACCCAUGUGAGUGAUACCAGACUAGUAUUAGUCCCUUGGCAGCACGCUGGGCGAGUGUAUAGUCUAUGCG [Same State - Theophylline A (Freestyle 15)] | 69 |  | 125 |  | 75.5
AGAAUAACAUGAGCAAAGCUCAUGUGCGAAGGAGCGGCGGAAACGCCAGGUAGGUCGCGCACAUGAGCAUCAGCCAUGUGUACCA [Omei Arginine B SS A v5] | 11.5 | 30.7 | 201 | 65.8 | 58.9
UACCUUAACACGGCCGCCACUCUCUAAUAGGAUCAUGGUACCGCACAUGAGGAUCACCCAUGUUUGAGGACCGGGUGUUAUGAAG [theeternabot_sameState_MS2_Trp_B_24] | 14.8 |  | 25 | 20.2 | 
UGACAUUGCUCAGAUACCAGACGUGAGCAUCAGCCAUGUGCCAACAAGUACAAAAUAAAUGUCCCUUGGCAGCUGAGCAAUGUCU [TheoBX 22 #MS2Left #AlternativeMS2 #Theo22] | 18.5 |  | 23.4 | 175 | 16.9
AUACAUGAGGAUCACCCAUGUAUAGAUGAAGGAGCGACCAGAGGGUCAGGUAGGUCGCAUCACAUGAGGAUCACCCAUGUAUUUU [DOUBLE!!! :-D #10] | 41.9 | 64 | 67.8 | 64.4 | 43.7
